Laboratory results as given in the supplement of paper PMC10567573.

B1: GAGE1 (parent)
chain: QPPEMIGPMRPEQFSDEVEPATPE

Variants of: B1
Experiment: protein stability index of a GFP-peptide fusion (GPS, HEK-293T) (PSI 1-6); higher = more stable
Conditions: c terminus: a fixed tail appended
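Also: lentivirally expressed fusions sorted by FACS into six bins by GFP to DsRed ratio, PSI derived from sequencing read proportions per bin multiplied by bin number.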

Protein stability index: each site, then its substitutions
M9: N 4.68, P 5.57, Q 5.49, R 5.86, S 5.72, T 5.68, V 5.97, W 5.9, Y 5.5
R10: A 5.17, C 5.51, D 3.42, E 5, F 5.47, G 4.82, H 5.2, I 5.24, K 4.93, L 4.37, M 5.12, N 5.28, P 5.78, Q 4.4, S 5.56, T 4.38, V 4.98, W 5.34, Y 5.24
P11: A 5.35, C 5.5, D 5.69, E 5.69, F 5.5, G 5.65, H 5.82, I 4.87, K 5.63, L 5.37, M 4.9, N 5.44, Q 5.34, R 5.55, S 5.6, T 5.61, V 5.7, W 5.39, Y 5.43
E12: A 5.33, C 5.27, D 4.57, F 5.87, G 5.01, H 5.21, I 5.69, K 5.15, L 5.8, M 5.15, N 5.46, P 5.73, Q 5.57, R 5.71, S 5.5, T 5.58, V 5.83, W 4.88, Y 5.51
Q13: A 5.12, C 5.59, D 4.11, E 4.65, F 5.02, G 5.78, H 5.45, I 5.6, K 5.34, L 5.64, M 4.96, N 5.33, P 5.91, R 5.58, S 5.46, T 5.84, V 5.62, W 5.36, Y 5.5
F14: A 5.4, C 5.29, D 5.8, E 5.49, G 5.68, H 5.46, I 5.28, K 4.13, L 5.61, M 5.57, N 5.87, P 5.84, Q 5.56, R 5.72, S 5.97, T 5.81, V 5.48, W 5.65, Y 4.75
S15: A 4.71, C 5.31, D 4.57, E 5.49, F 3.19, G 4.48, H 4.75, I 5.08, K 5.72, L 4.79, M 4.22, N 5.32, P 4.67, R 5.37, T 5.27, V 4.73, W 4.8, Y 4.59
D16: A 5.69, C 4.96, E 3.25, F 5.74, G 4.98, H 5.57, I 5.39, K 5.51, L 5.32, M 5.32, N 5.38, P 5.66, Q 5.6, R 5.33, S 5.31, T 5.46, V 5.54, W 5.24, Y 5.43
E17: A 5.08, C 4.91, D 4.85, F 4.86, G 5.16, H 5.56, I 4.89, K 5.12, L 5.04, M 5.16, N 5.01, P 4.73, Q 5.42, R 5.34, S 5.44, T 5.08, V 4.96, W 4.85, Y 4.05
V18: A 5.25, C 4.78, D 4.79, E 4.96, F 5.13, G 4.72, H 5.26
